Laboratory results published in paper PMC9584538 (Cell reports, 2022).
Numbering of substitutions follows the chain as printed. Numbers in names are those of the source. Where “and” joins values, the source holds several entries; their conditions need not be identical. Equal entries are not always repeated. Where two headings read alike, the source gives them in different places. One block for each molecule: values may come before it.

Experiments:
_(PARL)Skd3^NBD (human) = test: cryo-EM structure
[1] = molecular target: _(PARL)Skd3^Δ1-2 (ankyrin repeats 1 and 2 deleted, ΔY127-G196) (human); test: cryo-EM structure
[2] = molecular target: _(PARL)Skd3^Δ1-2 (ankyrin repeats 1 and 2 deleted, ΔY127-G196) (human); test: SEC
PARLSkd3 (human CLPB) = molecular target: T1, PARLSkd3 (human CLPB) (Homo sapiens, UniProt Q9H078); type: biochemical
T1 sequence (Q9H078 127-707): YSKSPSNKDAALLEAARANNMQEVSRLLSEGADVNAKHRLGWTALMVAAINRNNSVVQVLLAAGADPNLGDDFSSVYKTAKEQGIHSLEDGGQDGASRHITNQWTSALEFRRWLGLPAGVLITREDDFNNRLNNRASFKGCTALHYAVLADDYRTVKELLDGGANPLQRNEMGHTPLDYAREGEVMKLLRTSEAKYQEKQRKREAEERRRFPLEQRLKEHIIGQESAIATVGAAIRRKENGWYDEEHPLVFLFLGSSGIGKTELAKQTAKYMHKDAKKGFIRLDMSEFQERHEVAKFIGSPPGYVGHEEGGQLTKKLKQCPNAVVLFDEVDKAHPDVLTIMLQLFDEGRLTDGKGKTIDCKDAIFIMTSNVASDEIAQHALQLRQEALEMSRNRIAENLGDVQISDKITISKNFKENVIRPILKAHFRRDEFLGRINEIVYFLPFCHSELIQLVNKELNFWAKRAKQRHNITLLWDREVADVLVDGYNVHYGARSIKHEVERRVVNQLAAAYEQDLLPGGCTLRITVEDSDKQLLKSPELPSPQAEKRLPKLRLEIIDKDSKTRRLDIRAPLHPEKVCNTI

SEC [3] = molecular target: the molecule itself; test: SEC
[4] = molecular target: the molecule itself
[5] = molecular target: Casein fluorescein isothiocyanate from bovine milk (FITC-casein) (bovine); test: fluorescence polarisation
[6] = molecular target: Casein fluorescein isothiocyanate from bovine milk (FITC-casein) (bovine); test: fluorescence polarisation; remark: listed apart in the source
[7] = molecular target: Casein fluorescein isothiocyanate from bovine milk (FITC-casein) (bovine); test: fluorescence polarisation; remark: listed apart in the source
SEC [8] = molecular target: the molecule itself; test: SEC; remark: listed apart in the source
[9] = molecular target: T2, PARL-protease-activated Skd3 (human CLPB), wild type (human, UniProt Q9H078 127-707); test: FRET or BRET
T2 sequence (looked up): T1 sequence (Q9H078 127-707)

Sequence of Casein fluorescein isothiocyanate from bovine milk (FITC-casein) (bovine) (P02662 16-214): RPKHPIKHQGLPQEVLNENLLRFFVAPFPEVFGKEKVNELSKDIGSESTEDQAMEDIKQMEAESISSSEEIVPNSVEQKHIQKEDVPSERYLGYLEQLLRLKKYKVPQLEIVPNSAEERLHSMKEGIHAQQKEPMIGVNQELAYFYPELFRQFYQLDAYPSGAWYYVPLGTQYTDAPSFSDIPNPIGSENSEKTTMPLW

Molecule: _(PARL)Skd3^NBD (domain or fragment)
stoichiometry N (_(PARL)Skd3^NBD (human)): 6

Molecule: Nc1ncnc2c1ncn2[C@@H]1O[C@H](COP(=O)(O)OP(=O)(O)O)[C@@H](O)[C@H]1O [ADP]
IC50 (PARLSkd3 (human CLPB)): ~1200 µM

Molecule: Nc1ncnc2c1ncn2[C@@H]1O[C@H](CO[P@](=O)(O)O[P@](=O)(O)O[P@@](=O)(O)S)[C@@H](O)[C@H]1O [ATPγS]
IC50 (PARLSkd3 (human CLPB)): ~242 µM

B1: _(PARL)Skd3^ΔL507-I534 (NBD insertion deleted) (enzyme, human, UniProt Q9H078 127-707, looked up)
chain: YSKSPSNKDAALLEAARANNMQEVSRLLSEGADVNAKHRLGWTALMVAAINRNNSVVQVLLAAGADPNLGDDFSSVYKTAKEQGIHSLEDGGQDGASRHITNQWTSALEFRRWLGLPAGVLITREDDFNNRLNNRASFKGCTALHYAVLADDYRTVKELLDGGANPLQRNEMGHTPLDYAREGEVMKLLRTSEAKYQEKQRKREAEERRRFPLEQRLKEHIIGQESAIATVGAAIRRKENGWYDEEHPLVFLFLGSSGIGKTELAKQTAKYMHKDAKKGFIRLDMSEFQERHEVAKFIGSPPGYVGHEEGGQLTKKLKQCPNAVVLFDEVDKAHPDVLTIMLQLFDEGRLTDGKGKTIDCKDAIFIMTSNVASDEIAQHATISKNFKENVIRPILKAHFRRDEFLGRINEIVYFLPFCHSELIQLVNKELNFWAKRAKQRHNITLLWDREVADVLVDGYNVHYGARSIKHEVERRVVNQLAAAYEQDLLPGGCTLRITVEDSDKQLLKSPELPSPQAEKRLPKLRLEIIDKDSKTRRLDIRAPLHPEKVCNTI
stoichiometry N (SEC [3]): 12

B2: _(PARL)Skd3^ΔL660-I707 (lacking the CTD) (enzyme, human, UniProt Q9H078 127-707, looked up)
chain: YSKSPSNKDAALLEAARANNMQEVSRLLSEGADVNAKHRLGWTALMVAAINRNNSVVQVLLAAGADPNLGDDFSSVYKTAKEQGIHSLEDGGQDGASRHITNQWTSALEFRRWLGLPAGVLITREDDFNNRLNNRASFKGCTALHYAVLADDYRTVKELLDGGANPLQRNEMGHTPLDYAREGEVMKLLRTSEAKYQEKQRKREAEERRRFPLEQRLKEHIIGQESAIATVGAAIRRKENGWYDEEHPLVFLFLGSSGIGKTELAKQTAKYMHKDAKKGFIRLDMSEFQERHEVAKFIGSPPGYVGHEEGGQLTKKLKQCPNAVVLFDEVDKAHPDVLTIMLQLFDEGRLTDGKGKTIDCKDAIFIMTSNVASDEIAQHALQLRQEALEMSRNRIAENLGDVQISDKITISKNFKENVIRPILKAHFRRDEFLGRINEIVYFLPFCHSELIQLVNKELNFWAKRAKQRHNITLLWDREVADVLVDGYNVHYGARSIKHEVERRVVNQLAAAYEQDLLPGGCTLRITVEDSDKQ
stoichiometry N [4]: 6 and 12

B3: PARL-protease-activated Skd3 (human CLPB), wild type (enzyme)
chain: T1 sequence (Q9H078 127-707)
Kd [5]: 400 nM | Kd [6]: 100 nM | Kd [7]: 500 nM

B7: _(PARL)Skd3^ΔL (ANK linker deleted, ΔD197-A262) (enzyme, human, UniProt Q9H078 127-707, looked up)
chain: YSKSPSNKDAALLEAARANNMQEVSRLLSEGADVNAKHRLGWTALMVAAINRNNSVVQVLLAAGADPNLGSFKGCTALHYAVLADDYRTVKELLDGGANPLQRNEMGHTPLDYAREGEVMKLLRTSEAKYQEKQRKREAEERRRFPLEQRLKEHIIGQESAIATVGAAIRRKENGWYDEEHPLVFLFLGSSGIGKTELAKQTAKYMHKDAKKGFIRLDMSEFQERHEVAKFIGSPPGYVGHEEGGQLTKKLKQCPNAVVLFDEVDKAHPDVLTIMLQLFDEGRLTDGKGKTIDCKDAIFIMTSNVASDEIAQHALQLRQEALEMSRNRIAENLGDVQISDKITISKNFKENVIRPILKAHFRRDEFLGRINEIVYFLPFCHSELIQLVNKELNFWAKRAKQRHNITLLWDREVADVLVDGYNVHYGARSIKHEVERRVVNQLAAAYEQDLLPGGCTLRITVEDSDKQLLKSPELPSPQAEKRLPKLRLEIIDKDSKTRRLDIRAPLHPEKVCNTI
stoichiometry N (SEC [3]): 12 and 6

B8: _(PARL)Skd3^Δ3-4 (ankyrin repeats 3 and 4 deleted, ΔS263-K325) (enzyme, human, UniProt Q9H078 127-707, looked up)
chain: YSKSPSNKDAALLEAARANNMQEVSRLLSEGADVNAKHRLGWTALMVAAINRNNSVVQVLLAAGADPNLGDDFSSVYKTAKEQGIHSLEDGGQDGASRHITNQWTSALEFRRWLGLPAGVLITREDDFNNRLNNRAQRKREAEERRRFPLEQRLKEHIIGQESAIATVGAAIRRKENGWYDEEHPLVFLFLGSSGIGKTELAKQTAKYMHKDAKKGFIRLDMSEFQERHEVAKFIGSPPGYVGHEEGGQLTKKLKQCPNAVVLFDEVDKAHPDVLTIMLQLFDEGRLTDGKGKTIDCKDAIFIMTSNVASDEIAQHALQLRQEALEMSRNRIAENLGDVQISDKITISKNFKENVIRPILKAHFRRDEFLGRINEIVYFLPFCHSELIQLVNKELNFWAKRAKQRHNITLLWDREVADVLVDGYNVHYGARSIKHEVERRVVNQLAAAYEQDLLPGGCTLRITVEDSDKQLLKSPELPSPQAEKRLPKLRLEIIDKDSKTRRLDIRAPLHPEKVCNTI
stoichiometry N (SEC [3]): 12

The next lines start with results.

stoichiometry N [1]: 18 | stoichiometry N [2]: 12
Molecule: _(PARL)Skd3^Δ1-2 (ankyrin repeats 1 and 2 deleted, ΔY127-G196) (enzyme)

binding result [9]: binds
B4: _(PARL)Skd3^R620C (SCN-linked variant, sensor-2) (enzyme, human, UniProt Q9H078 127-707, looked up)
chain: T1 sequence (Q9H078 127-707) with R494C
stoichiometry N (SEC [8]): 12

binding result [9]: binds
B5: _(PARL)Skd3^R475Q (MGCA7-linked variant) (enzyme, human, UniProt Q9H078 127-707, looked up)
chain: T1 sequence (Q9H078 127-707) with R349Q
stoichiometry N (SEC [8]): 12

binding result [9]: binds
B6: _(PARL)Skd3^R561G (SCN-linked variant, Arg finger) (enzyme, human, UniProt Q9H078 127-707, looked up)
chain: T1 sequence (Q9H078 127-707) with R435G
stoichiometry N (SEC [8]): 12
